Article PMC7135739
Where two headings read alike, the source gives them in different places.

Tests used:
Assay in all cases: microtiter plate binding assay
[1] = molecular target: Rabbit skeletal muscle myosin (rabbit) (UniProt Q28641)
[2] = molecular target: Bovine cardiac myosin (bovine) (UniProt Q9BE39)
[3] = molecular target: Bovine cardiac myosin (bovine) (UniProt Q9BE39); remark: listed apart in the source

UniProt Q28641, sequence (Q28641 whole entry, chain 1 of 3): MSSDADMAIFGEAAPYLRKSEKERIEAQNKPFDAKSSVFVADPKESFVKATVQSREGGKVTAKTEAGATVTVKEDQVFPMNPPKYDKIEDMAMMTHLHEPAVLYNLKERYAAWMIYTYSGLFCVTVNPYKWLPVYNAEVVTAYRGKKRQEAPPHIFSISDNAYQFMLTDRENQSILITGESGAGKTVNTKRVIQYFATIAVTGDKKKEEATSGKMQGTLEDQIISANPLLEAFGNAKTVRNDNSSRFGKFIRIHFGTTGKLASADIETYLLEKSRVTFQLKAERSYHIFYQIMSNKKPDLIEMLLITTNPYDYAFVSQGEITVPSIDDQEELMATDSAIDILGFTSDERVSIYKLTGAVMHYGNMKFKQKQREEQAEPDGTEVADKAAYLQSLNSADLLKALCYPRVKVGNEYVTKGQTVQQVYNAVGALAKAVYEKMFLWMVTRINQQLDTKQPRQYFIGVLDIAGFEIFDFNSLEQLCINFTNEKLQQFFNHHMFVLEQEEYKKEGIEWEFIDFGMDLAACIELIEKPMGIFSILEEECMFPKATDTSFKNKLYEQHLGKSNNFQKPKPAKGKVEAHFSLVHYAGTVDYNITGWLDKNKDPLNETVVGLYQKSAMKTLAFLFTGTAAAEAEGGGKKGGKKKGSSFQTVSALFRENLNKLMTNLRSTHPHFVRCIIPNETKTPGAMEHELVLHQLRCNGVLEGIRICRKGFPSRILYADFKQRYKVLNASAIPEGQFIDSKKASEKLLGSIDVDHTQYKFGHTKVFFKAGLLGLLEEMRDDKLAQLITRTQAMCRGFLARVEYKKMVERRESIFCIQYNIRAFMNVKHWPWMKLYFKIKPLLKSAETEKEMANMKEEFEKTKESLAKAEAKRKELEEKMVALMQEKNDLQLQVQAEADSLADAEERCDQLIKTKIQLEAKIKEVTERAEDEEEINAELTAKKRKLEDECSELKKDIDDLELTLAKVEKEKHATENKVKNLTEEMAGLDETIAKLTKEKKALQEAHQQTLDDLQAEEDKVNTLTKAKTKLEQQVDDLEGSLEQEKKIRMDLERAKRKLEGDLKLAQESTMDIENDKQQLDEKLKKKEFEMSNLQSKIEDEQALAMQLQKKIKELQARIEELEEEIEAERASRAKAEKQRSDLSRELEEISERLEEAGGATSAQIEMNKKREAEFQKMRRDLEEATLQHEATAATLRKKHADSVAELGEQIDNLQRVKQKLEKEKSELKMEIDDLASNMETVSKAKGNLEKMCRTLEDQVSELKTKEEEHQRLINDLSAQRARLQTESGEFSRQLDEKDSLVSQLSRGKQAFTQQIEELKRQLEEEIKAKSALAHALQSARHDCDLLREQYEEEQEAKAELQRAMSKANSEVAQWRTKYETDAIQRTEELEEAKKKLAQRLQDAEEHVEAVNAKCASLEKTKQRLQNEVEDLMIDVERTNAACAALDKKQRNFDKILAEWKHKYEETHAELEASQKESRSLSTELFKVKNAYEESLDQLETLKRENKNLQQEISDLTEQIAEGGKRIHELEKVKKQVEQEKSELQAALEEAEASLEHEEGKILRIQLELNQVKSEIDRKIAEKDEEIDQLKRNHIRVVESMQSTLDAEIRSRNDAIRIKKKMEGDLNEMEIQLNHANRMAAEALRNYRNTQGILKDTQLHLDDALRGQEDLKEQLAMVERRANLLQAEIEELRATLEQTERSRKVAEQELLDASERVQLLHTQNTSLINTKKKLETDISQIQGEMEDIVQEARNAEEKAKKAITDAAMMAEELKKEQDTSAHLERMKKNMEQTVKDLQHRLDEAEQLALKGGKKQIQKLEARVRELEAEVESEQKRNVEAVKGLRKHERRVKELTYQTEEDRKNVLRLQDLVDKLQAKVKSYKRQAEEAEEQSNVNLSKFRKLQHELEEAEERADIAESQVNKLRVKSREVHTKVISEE
UniProt Q28641, sequence (P02602 2-192, chain 2 of 3, further chain): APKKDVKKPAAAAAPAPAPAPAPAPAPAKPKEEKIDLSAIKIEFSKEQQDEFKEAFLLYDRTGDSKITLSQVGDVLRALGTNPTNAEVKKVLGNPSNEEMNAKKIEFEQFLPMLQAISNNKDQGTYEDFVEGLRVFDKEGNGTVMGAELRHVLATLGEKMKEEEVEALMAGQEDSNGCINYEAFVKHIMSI
UniProt Q28641, sequence (P02608 2-170, chain 3 of 3, further chain): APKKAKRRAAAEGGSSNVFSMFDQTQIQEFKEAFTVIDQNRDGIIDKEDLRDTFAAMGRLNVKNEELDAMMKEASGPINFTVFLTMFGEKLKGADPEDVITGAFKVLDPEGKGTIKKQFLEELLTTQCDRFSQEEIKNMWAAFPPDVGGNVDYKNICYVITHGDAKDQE

Kd [1]: 80.4 nM
Kd [2]: 108 nM
Kd [3]: 21 nM
Substance: Human factor Xa (enzyme)
